From US20220177587A1, “METHODS AND USES OF VARIANT CD80 FUSION PROTEINS AND RELATED CONSTRUCTS” (Alpine Immune Sciences, Inc., priority 2018, published 2022)

Key:
PD-L1 (human) [1] = target: PD-L1 (human) (UniProt Q9NZQ7); assay: flow cytometry, CHO cells expressing huPD-L1
Target sequence in this assay (Q9NZQ7 19-290): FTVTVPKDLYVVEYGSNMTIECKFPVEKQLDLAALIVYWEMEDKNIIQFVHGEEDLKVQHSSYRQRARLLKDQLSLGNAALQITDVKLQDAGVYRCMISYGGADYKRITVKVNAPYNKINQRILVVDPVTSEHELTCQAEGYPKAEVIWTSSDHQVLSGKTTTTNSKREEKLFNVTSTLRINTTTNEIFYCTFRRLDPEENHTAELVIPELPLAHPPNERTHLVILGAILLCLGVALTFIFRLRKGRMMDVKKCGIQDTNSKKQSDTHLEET

human CTLA-4 (human) [2] = target: human CTLA-4 (human) (UniProt P16410); assay: flow cytometry, CHO cells expressing huCTLA-4
human CTLA-4 (human) [3] = target: human CTLA-4 (human) (UniProt P16410); assay: flow cytometry, CHO cells stably expressing CTLA4
PD-L1 (human) [4] = target: PD-L1 (human) (UniProt Q9NZQ7); assay: flow cytometry, CHO cells stably expressing PD-L1
CD28 (human) = CD28 (human) (UniProt P10747); assay: flow cytometry, Jurkat cells (CD28)
human CTLA-4 (human) [5] = target: human CTLA-4 (human) (UniProt P16410); assay: flow cytometry, CHO cells expressing CTLA4
PD-L1 (human) [6] = target: PD-L1 (human) (UniProt Q9NZQ7); assay: flow cytometry, CHO cells expressing PD-L1
Target sequence in this assay (Q9NZQ7 19-290): as above

Chain of human CTLA-4 (human) (P16410 36-223): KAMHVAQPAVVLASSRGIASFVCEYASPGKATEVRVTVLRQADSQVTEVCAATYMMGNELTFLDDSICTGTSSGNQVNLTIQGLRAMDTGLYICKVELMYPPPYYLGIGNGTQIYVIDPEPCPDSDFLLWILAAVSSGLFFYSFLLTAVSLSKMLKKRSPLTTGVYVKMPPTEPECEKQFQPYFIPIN

Row | Substance | MFI at 33.3 nM (PD-L1 (human) [4]) | MFI at 33.3 nM (CD28 (human)) | MFI at 33.3 nM (human CTLA-4 (human) [5]) | MFI at 33.3 nM (PD-L1 (human) [6]) | further results
1 | variant CD80 IgV-Fc D46V/M47L/V68M/L85Q (Fc fusion) | – | – | – | – | MFI at 33.3 nM (PD-L1 (human) [1]): 29700 MFI; MFI at 33.3 nM (human CTLA-4 (human) [2]): 32500 MFI
2 | variant CD80 IgV-Fc (inert) H18V/A26P/E35D/M47V/V68L/A71G (Fc fusion) | 55400 MFI | – | – | – | MFI at 33.3 nM (human CTLA-4 (human) [3]): 13700 MFI
3 | variant CD80 IgV-Fc (inert) H18V/A26N/E35D/M47V/V68M/A71G (Fc fusion) | 68200 MFI | – | – | – | MFI at 33.3 nM (human CTLA-4 (human) [3]): 22400 MFI
4 | CD80 (A91G/I118V/T120S/T130A) ECD-Fc (Fc fusion) | – | – | – | – | MFI at 66.7 nM (CD28 (human)): 720; EC50 (human CTLA-4 (human) [3]): 4.3 nM; MFI at 66.7 nM (human CTLA-4 (human) [3]): 24800; MFI at 66.7 nM (PD-L1 (human) [4]): 107
5 | CD80 R29C/E35D/M47L/V68M/A71G/L85M IgV-Fc (Fc fusion) | – | 16 MFI | 91 MFI | – | –
6 | variant CD80 IgV-Fc (inert) H18V/A26R/E35D/M47L/V68M/A71G/D90G (Fc fusion) | 73200 MFI | 9620 MFI | – | – | MFI at 33.3 nM (human CTLA-4 (human) [3]): 23200 MFI
7 | CD80 T13R/Q27L/Q33L/E35D/T41S/M47V/N48K/V68M/L85M IgV-Fc (Fc fusion) | – | 14.6 MFI | 109 MFI | 3270 MFI | Fold change to WT CD80 (CD28 (human)): 0.5 fold; Fold change to WT CD80 (PD-L1 (human) [6]): 63.5 fold
8 | variant CD80 IgV-Fc N48K/V68M/K89N (Fc fusion) | – | – | – | – | MFI at 33.3 nM (PD-L1 (human) [1]): 11500 MFI; MFI at 33.3 nM (human CTLA-4 (human) [2]): 19100 MFI
9 | variant CD80 IgV-Fc E35D/D46V (Fc fusion) | – | – | – | – | MFI at 33.3 nM (PD-L1 (human) [1]): 3970 MFI; MFI at 33.3 nM (human CTLA-4 (human) [2]): 50100 MFI
10 | CD80 H18Y/E35D/M47L/Y53F/V68M/A71G IgV-Fc (Fc fusion) | – | 15.7 MFI | 146 MFI | 5100 MFI | Fold change to WT CD80 (CD28 (human)): 0.5 fold; Fold change to WT CD80 (PD-L1 (human) [6]): 99.1 fold
11 | CD80 IgV-Fc Q33R/M47V/T62N/A71G (Fc fusion) | 12200 MFI | – | – | – | MFI at 33.3 nM (human CTLA-4 (human) [3]): 308 MFI
12 | CD80 Q27L/Q33L/E35D/T41S/M47V/N48K/V68M/L85M IgV-Fc (Fc fusion) | – | 15 MFI | 178 MFI | 16500 MFI | Fold change to WT CD80 (CD28 (human)): 0.5 fold; Fold change to WT CD80 (PD-L1 (human) [6]): 320 fold
13 | CD80 H18Y/E35D/V68M/A71G/R94Q/E95V IgV-Fc (Fc fusion) | – | 16 MFI | 18300 MFI | 15000 MFI | –
14 | CD80 S21P/E35D/K37E/D46E/M47I/V68M IgV-Fc (Fc fusion) | – | 540 MFI | 20600 MFI | – | –
15 | CD80 H18Y/E35D/M38I/M47L/V68M/L85M IgV-Fc (Fc fusion) | – | 16.7 MFI | 139 MFI | 3590 MFI | Fold change to WT CD80 (CD28 (human)): 0.5 fold; Fold change to WT CD80 (PD-L1 (human) [6]): 69.7 fold
16 | CD80 T13R/Q33L/E35D/M47V/T62S/V68M/L85M IgV-Fc (Fc fusion) | – | 16 MFI | 105 MFI | 3970 MFI | Fold change to WT CD80 (CD28 (human)): 0.5 fold; Fold change to WT CD80 (PD-L1 (human) [6]): 77 fold
17 | CD80 T13R/Q33L/E35D/M47L/V68M/L85M IgV-Fc (Fc fusion) | – | 15.7 MFI | 141 MFI | 3230 MFI | Fold change to WT CD80 (CD28 (human)): 0.5 fold; Fold change to WT CD80 (PD-L1 (human) [6]): 62.7 fold
18 | wild-type CD80 ECD-Fc (inert), as in Example 12 (Fc fusion) | 161 MFI | 57.8 MFI | – | – | –
19 | variant CD80 IgV-Fc E35D/M47V/V68M (Fc fusion) | – | – | – | – | MFI at 33.3 nM (PD-L1 (human) [1]): 16600 MFI
20 | CD80 E35D/M47V/V68M/L85M IgV-Fc (Fc fusion) | – | 201 MFI | 16000 MFI | 9180 MFI | –
21 | variant CD80 IgV-Fc (inert) H18Y/A26N/E35D/M47F/V68M/A71G/D90G (Fc fusion) | 26500 MFI | 82.2 MFI | – | – | –
22 | CD80 E35D/D46E/M47L/V68M/T79M/L85M/L97Q IgV-Fc (Fc fusion) | – | 14 MFI | 96 MFI | 4620 MFI | Fold change to WT CD80 (CD28 (human)): 0.5 fold; Fold change to WT CD80 (PD-L1 (human) [6]): 89.7 fold
23 | CD80 H18Y/E35D/M47I/V68M/Y87N IgV-Fc (Fc fusion) | – | 4040 MFI | 18600 MFI | 15000 MFI | –
24 | CD80 E35D/D46E/M47I/T62A/V68M/L85M/Y87C IgV-Fc (Fc fusion) | – | – | 17000 MFI | – | –
25 | variant CD80 IgV-Fc (inert) H18L/E35D/M47V/V68M/A71G/D90G (Fc fusion) | 64800 MFI | 6350 MFI | – | – | MFI at 33.3 nM (human CTLA-4 (human) [3]): 20300 MFI
26 | CD80 T13R/Q33R/E35D/M38I/M47L/V68M IgV-Fc (Fc fusion) | – | 13.8 MFI | 193 MFI | 4480 MFI | Fold change to WT CD80 (PD-L1 (human) [6]): 87 fold
27 | variant CD80 IgV-Fc (inert) H18V/A26G/E35D/M47V/V68M/A71G/D90G (Fc fusion) | 66200 MFI | 8190 MFI | – | – | MFI at 33.3 nM (human CTLA-4 (human) [3]): 25400 MFI
28 | variant CD80 IgV-Fc E35D/V68M/K89N (Fc fusion) | – | – | – | – | MFI at 33.3 nM (human CTLA-4 (human) [2]): 24800 MFI
29 | CD80 IgV-Fc E24D/Q27R/E35D/T41S/M47V/L85Q (Fc fusion) | 2860 MFI | 66 MFI | – | – | MFI at 33.3 nM (human CTLA-4 (human) [3]): 13900 MFI
